Bounds are passed on as bounds.

One molecule from patent US6936584B1, “Mixed amylin activity compounds” (Amylin Pharmaceuticals, Inc., priority 1998, dated 2005) can be followed below.

The target of assay [1] is T1, amylin receptors of rat nucleus accumbens membranes (rat).
T1 chain 1: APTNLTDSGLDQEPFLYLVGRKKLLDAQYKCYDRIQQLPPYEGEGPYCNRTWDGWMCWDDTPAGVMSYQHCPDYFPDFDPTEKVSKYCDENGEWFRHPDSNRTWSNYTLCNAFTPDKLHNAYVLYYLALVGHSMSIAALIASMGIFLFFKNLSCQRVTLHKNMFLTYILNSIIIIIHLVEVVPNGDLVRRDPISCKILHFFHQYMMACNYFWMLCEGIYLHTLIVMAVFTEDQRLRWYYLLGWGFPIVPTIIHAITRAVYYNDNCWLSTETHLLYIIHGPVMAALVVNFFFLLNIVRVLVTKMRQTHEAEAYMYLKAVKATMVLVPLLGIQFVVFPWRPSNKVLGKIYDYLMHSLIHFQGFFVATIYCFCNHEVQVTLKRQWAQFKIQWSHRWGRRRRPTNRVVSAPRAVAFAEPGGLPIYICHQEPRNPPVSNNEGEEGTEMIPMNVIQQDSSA
T1 chain 2: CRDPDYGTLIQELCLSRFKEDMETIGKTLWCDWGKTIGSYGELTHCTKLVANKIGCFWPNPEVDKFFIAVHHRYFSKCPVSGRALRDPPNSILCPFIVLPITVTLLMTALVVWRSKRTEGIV
The assay can be described thus: radioligand competition, 125I-BH-rat amylin on rat nucleus accumbens membranes. For orientation: Loss of bound radioactivity is the signal in a displacement assay; it reports binding, not function.

For assay [2], the target named is T2, human CGRP receptors (SK-N-MC neuroblastoma cells) (human, UniProt Q16602 23-461; O60894 27-148).
T2 construct: whole, on cells; also called CGRP (SK-N-MC) receptors
T2 sequence (Q16602 23-461, chain 1 of 2): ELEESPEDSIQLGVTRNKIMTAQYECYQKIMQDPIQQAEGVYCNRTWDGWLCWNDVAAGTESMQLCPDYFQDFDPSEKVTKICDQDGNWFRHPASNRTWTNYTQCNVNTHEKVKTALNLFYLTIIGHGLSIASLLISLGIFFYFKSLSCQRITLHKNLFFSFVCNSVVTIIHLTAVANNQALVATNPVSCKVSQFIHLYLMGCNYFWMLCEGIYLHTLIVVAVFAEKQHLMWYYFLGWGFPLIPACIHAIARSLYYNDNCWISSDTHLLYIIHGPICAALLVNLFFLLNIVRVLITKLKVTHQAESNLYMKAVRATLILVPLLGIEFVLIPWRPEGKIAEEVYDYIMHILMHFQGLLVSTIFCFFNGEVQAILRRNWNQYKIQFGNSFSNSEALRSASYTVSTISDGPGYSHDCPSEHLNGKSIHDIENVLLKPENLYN
T2 sequence (O60894 27-148, chain 2 of 2): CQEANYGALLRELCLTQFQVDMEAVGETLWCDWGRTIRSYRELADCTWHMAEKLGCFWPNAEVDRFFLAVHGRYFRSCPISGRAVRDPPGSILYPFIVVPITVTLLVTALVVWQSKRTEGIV
The assay can be described thus: radioligand competition, [125I]human CGRP on SK-N-MC cell membranes.

For assay [3], the target named is T2, human CGRP receptors (SK-N-MC …). The assay can be described thus: radioligand competition, SK-N-MC membranes against rat nucleus accumbens membranes.
Assay [4] addresses T3, human calcitonin receptors (T47D and MCF7-7 breast carcinoma cells) (human, UniProt P30988 25-474).
T3 construct: whole, on cells; also called calcitonin (T47D) receptors
T3 sequence (looked up): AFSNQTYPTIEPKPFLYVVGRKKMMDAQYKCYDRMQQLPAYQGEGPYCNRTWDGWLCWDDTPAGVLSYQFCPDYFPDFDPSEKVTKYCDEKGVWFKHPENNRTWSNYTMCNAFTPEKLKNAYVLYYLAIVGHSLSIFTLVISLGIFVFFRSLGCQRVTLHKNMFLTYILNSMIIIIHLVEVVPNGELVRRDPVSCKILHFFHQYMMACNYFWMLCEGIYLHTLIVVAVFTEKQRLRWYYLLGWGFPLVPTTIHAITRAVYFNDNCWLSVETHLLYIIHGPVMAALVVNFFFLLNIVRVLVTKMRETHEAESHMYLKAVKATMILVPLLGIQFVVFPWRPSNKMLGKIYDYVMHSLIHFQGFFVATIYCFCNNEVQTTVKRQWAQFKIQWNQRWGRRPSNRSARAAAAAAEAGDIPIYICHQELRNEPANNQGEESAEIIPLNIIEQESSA
The assay can be described thus: radioligand competition, [125I]salmon calcitonin on T47D cell membranes.

For assay [5], the target named is T3, human calcitonin receptors (T47D and …). In words: cell-based or functional assay.
In assay [6] the target is T4, rat calcitonin C1a receptor (rat, UniProt P32214 25-516).
T4 sequence (looked up): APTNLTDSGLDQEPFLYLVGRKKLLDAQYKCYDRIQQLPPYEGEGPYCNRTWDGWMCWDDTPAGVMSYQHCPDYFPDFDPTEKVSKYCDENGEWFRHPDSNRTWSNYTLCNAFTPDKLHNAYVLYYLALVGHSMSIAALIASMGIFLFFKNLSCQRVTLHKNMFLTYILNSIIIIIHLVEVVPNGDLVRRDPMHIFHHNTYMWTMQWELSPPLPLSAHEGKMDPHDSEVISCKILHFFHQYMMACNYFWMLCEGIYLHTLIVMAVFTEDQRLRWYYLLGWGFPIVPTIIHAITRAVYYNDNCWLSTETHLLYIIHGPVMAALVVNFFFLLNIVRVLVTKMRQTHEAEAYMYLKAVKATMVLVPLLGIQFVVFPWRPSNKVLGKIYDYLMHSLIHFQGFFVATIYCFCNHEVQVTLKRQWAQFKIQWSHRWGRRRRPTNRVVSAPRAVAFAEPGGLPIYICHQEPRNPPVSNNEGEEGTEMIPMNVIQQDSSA
In words: cell-based or functional assay.

As for LSTCVLGRLSQELHRLQTYPRTNTGSNTY (Synthetic 29-residue peptide) [Compound 1], the IC50 came out at 0.25 nM in assay [1], 160 nM in assay [2] and 0.22 nM in assay [4]. Further, the “fold lower affinity than for the amylin receptors” value in assay [3] is no less than 300 fold. For the same molecule, the “EC50 of cyclic AMP accumulation, T47D cells” value in assay [5] was 2.2 nM. Also, in assay [6], the “EC50 of adenyl cyclase activity, cells expressing rat calcitonin C1a receptors” value amounted to 0.97 nM.

By IC50 is commonly meant the concentration at which inhibition is half-maximal.
